Assay results reported in patent US9561272B2, “Compositions and methods for modulating immune responses” (The University of Queensland, priority 2006, dated 2017).
Values belong to the molecule of their own block, whether it stands above or below them.

Columns and labels:
[1] = Entrapment efficiency of NF-κB inhibitor and antigen in liposomes (% EE); type: physicochemical; conditions: EPC liposomes; for entrapment efficiency of protein antigen in liposomes: freeze-thawing cycle repeated 5 times; for entrapment efficiency of NF-κB inhibitor in liposomes: after removal of non-entrapped drug
Method: Entrapment efficiency of protein following this process was typically at least 20%, approximately 60% for Bay and greater than 80% for both Quecertin and Curcumin. Empty, NF-κB inhibitor or protein only liposomes were prepared as above, by omitting the relevant bioactive/s. Following removal of non-entrapped NF-κB inhibitor and antigen, the amount of NF-κB inhibitor and antigen entrapped in liposome could be quantified by assay method. The entrapment efficiency was expressed as: [formula] […] The resulting solution was then kept at −20° C. After 30 minutes, the sample was centrifuged at maximum speed at 4° C. for 10 minutes (EBA 12R centrifuge, Hettich Zentrifugen, Germany) to remove precipitated protein. The concentration of Bay 11-7082 in the resulting supernatant was then assayed and calculated based on the established calibration (with consideration to the dilutions performed) (data not shown). […] The concentration of either quercetin or curcumin in the resulting solution was then assayed and calculated based on the established calibration curves (with consideration to the dilutions performed). […] The quantity of model antigen entrapped in liposomes was determined by a standard bicinchoninic acid (BCA) protein assay with slight modification. Briefly, liposomes loaded with OVA or mBSA were lysed using ethanol or iso-propanol at 20-fold dilution, respectively, and then stored at −20° C. After 30 minutes, the sample was centrifuged at maximum speed at 4° C. for 10 minutes (EBA 12R centrifuge, Hettich Zentrifugen, Germany). The supernatant containing lipid and NF-κB inhibitor was discarded. The protein pellet was then placed in an Alpha 2-4 LD Freeze-drier (Alpha 2-4 LD Freeze-drier, Martin Christ, Germany) to remove remaining solvent. One hundred μL of 2.5% w/v sodium dodecyl sulfate (SDS) solution (for OVA) or water (for mBSA) was added to redissolve the protein pellet. SDS was required for aiding to re-dissolve OVA pellet. The resulting protein solution was mixed with 2 mL of BCA solution (Pierce Biotechnology Inc., USA) and incubated at 37° C. for 30 minutes. After incubation, the absorbance of the solution was measured using a Cary 50 UV-VIS spectrophotometer (Varian, Calif., USA) at a wavelength of 562 nm. The concentration of OVA and mBSA was calculated on the basis of calibration curves established using a series of known concentrations of either OVA or mBSA solution ranging from 0.25 mg/mL to 2 mg/mL.

[2] = cited from earlier work
[3] = previous experiment, thin film method without freeze-thawing, same EPC concentration (Copland 2003); cited from earlier work
[4] = tested on: NF-κB; conditions: Table 3, miscellaneous inhibitors of NF-κB; step of NF-κB function inhibited, per the cited reference; cited from earlier work

Molecule: methylated bovine serum albumin [mBSA]
entrapment efficiency of protein antigen in liposomes [1]: approximately 25%

entrapment efficiency of NF-κB inhibitor in liposomes [1]: around 60%
entrapment efficiency of NF-κB inhibitor in liposomes ([1]; listed as Bay): approximately 60%
Molecule: Cc1ccc(S(=O)(=O)/C=C/C#N)cc1 [Bay 11-7082, E3((4-methylphenyl)-sulfonyl)-2-propenenitrile, reference compound]
log P [2]: 1.63

B1: ovalbumin (protein, UniProt P01012 2-386, looked up)
Ovalbumin: GSIGAASMEFCFDVFKELKVHHANENIFYCPIAIMSALAMVYLGAKDSTRTQINKVVRFDKLPGFGDSIEAQCGTSVNVHSSLRDILNQITKPNDVYSFSLASRLYAEERYPILPEYLQCVKELYRGGLEPINFQTAADQARELINSWVESQTNGIIRNVLQPSSVDSQTAMVLVNAIVFKGLWEKAFKDEDTQAMPFRVTEQESKPVQMMYQIGLFRVASMASEKMKILELPFASGTMSMLVLLPDEVSGLEQLESIINFEKLTEWTSSNVMEERKIKVYLPRMKMEEKYNLTSVLMAMGITDVFSSSANLSGISSAESLKISQAVHAAHAEINEAGREVVGSAEAGVDAASVSEEFRADHPFLFCIKHIATNAVLFFGRCVSP
notes: model antigen
entrapment efficiency of protein antigen in liposomes [1]: ~20%

B2: FITC-OVA: fluorescein isothiocyanate conjugated to ovalbumin (conjugate, UniProt P01012 2-386, looked up)
Ovalbumin: B1 Ovalbumin
modifications: FITC label
notes: fluorescein isothiocyanate conjugated to ovalbumin
entrapment efficiency of FITC-OVA in liposomes [3]: less than 5%

B3: Uteroglobin (protein, UniProt P11684 22-91, looked up)
Uteroglobin: EICPSFQRVIETLLMDTPSSYEAAMELFSPDQDMREAGAQLKKLVDTLPQKPRESIIKLMEKIAQSSLCN
Effect or point of inhibition [4]: DNA binding

B4: NRF (NF-κB repression factor) (protein, UniProt O15226 1-690, looked up)
NF-kappa-B-repressing factor: MEKILQMAEGIDIGEMPSYDLVLSKPSKGQKRHLSTCDGQNPPKKQAGSKFHARPRFEPVHFVASSSKDERQEDPYGPQTKEVNEQTHFASMPRDIYQDYTQDSFSIQDGNSQYCDSSGFILTKDQPVTANMYFDSGNPAPSTTSQQANSQSTPEPSPSQTFPESVVAEKQYFIEKLTATIWKNLSNPEMTSGSDKINYTYMLTRCIQACKTNPEYIYAPLKEIPPADIPKNKKLLTDGYACEVRCQNIYLTTGYAGSKNGSRDRATELAVKLLQKRIEVRVVRRKFKHTFGEDLVVCQIGMSSYEFPPALKPPEDLVVLGKDASGQPIFNASAKHWTNFVITENANDAIGILNNSASFNKMSIEYKYEMMPNRTWRCRVFLQDHCLAEGYGTKKTSKHAAADEALKILQKTQPTYPSVKSSQCHTGSSPRGSGKKKDIKDLVVYENSSNPVCTLNDTAQFNRMTVEYVYERMTGLRWKCKVILESEVIAEAVGVKKTVKYEAAGEAVKTLKKTQPTVINNLKKGAVEDVISRNEIQGRSAEEAYKQQIKEDNIGNQLLRKMGWTGGGLGKSGEGIREPISVKEQHKREGLGLDVERVNKIAKRDIEQIIRNYARSESHTDLTFSRELTNDERKQIHQIAQKYGLKSKSHGVGHDRYLVVGRKRRKEDLLDQLKQEGQVGHYELVMPQAN
Effect or point of inhibition [4]: Transactivation
